Assay results from PMC6065417, “Neutralization of Junín virus by single domain antibodies targeted against the nucleoprotein” (Scientific Reports, 2018).

Tests used:
Conditions in all cases: one partner purified
[1] = target: T1, Junín virus nucleoprotein (N) of strain Candid#1, expressed from a plasmid (Junin mammarenavirus, Candid#1, UniProt F4ZL09, strain); experiment: immunostaining of cells or tissue
T1 construct: also called N from Candid#; Candid#1N; source: Vero cells, transfected (Fugene), in fixed and permeabilized cells

[2] = target: T2, Junín virus nucleoprotein (N) of strain XJCl3, expressed from a plasmid (Junín virus (Junin mammarenavirus), …, UniProt F4ZL09, strain); experiment: immunostaining of cells or tissue
T2 construct: also called N from XJCl3

[3] = target: T3, Junín virus nucleoprotein (N) in Candid#1-infected cells (Junin mammarenavirus, Candid#1, UniProt F4ZL09, strain); experiment: co-IP
T3 construct: also called viral N; Candid#1N

Measured: binding result

B1: VHH 2.3 (VHH)
VHH: QVQLVESGGGLVQPGGSLRLSCAASGSIDSINAMAWYRQAPGKERELVAGISKNGIPWYLDSLKGRFNVSRDNAKNTLYLQIHNLKPEDAAMYYCASSSRTIATTTNEFDFWGQGTQVTVSS
notes: source: E. coli, periplasmic extract, purified (Ni-NTA); not shown: His6, C-terminal, kept
binds: all assays above
